Results on three molecules are retold here after article PMC8589032 (Journal of molecular biology, 2018).

As a reminder, the Kd is the free concentration of one partner at which half of the binding sites on the other are occupied at equilibrium, for simple one-to-one binding.

The target in test [1] is T1, ubiquitin (UniProt P0CG48 1-76). Put plainly: ITC. Background: Isothermal titration calorimetry measures the heat released or taken up as one component is titrated into another.
For test [2], the target named is T1, ubiquitin. The test can be described thus: NMR titration.

Positions count from the first letter of the chain named. Numbers in names are those of the source.

B1: REV1 UBM1-UBM2 (C958S C977A) (domain or fragment, human, UniProt Q9UBZ9-1 933-1040, looked up)
chain: PSPSQLDQSVLEALPPDLREQVEQVSAVQQAESHGDKKKEPVNGANTGILPQPVGTVLLQIPEPQESNSDAGINLIALPAFSQVDPEVFAALPAELQRELKAAYDQRQ
B1: the affinity with ubiquitin [1], expressed as Kd, was 18.7 ± 1.6 µM.

B2: REV1 UBM1-UBM2 (residues 933-1040, wild-type) (domain or fragment, human, UniProt Q9UBZ9-1 933-1040, looked up)
chain: B1 chain with S26C, A45C
On to B2, for which the binding result with ubiquitin [2] is recorded as “binds”. On to ESNSDAGINLIALPAFSQVDPEVFAALPAELQRELKAAYDQRQ (domain or fragment, human, UniProt Q9UBZ9-1 998-1040, looked up) [REV1 UBM2 (residues E998 to Q1040)], for which the Kd with ubiquitin [1] was determined as 14.9 ± 3 µM.
